Test results as given in patent US20160152729A1.

Molecular target: human TFPIα (human) (UniProt P10646)
Assay: SPR Biacore T200; antibody captured on anti-human IgG Fc; TFPI as analyte; 1:1 model

Kd: 0.485 nM
koff: 0.000399 s⁻¹
kon: 822000 M⁻¹ s⁻¹
Substance: Bay 2A8-K95L (antibody)
